Blank lines part the entries; values can stand above or below the substance they belong to.
Columns and labels:
[1] = biological target: SH2 domain of the tyrosine kinase Fyn (UniProt P06241); experiment: competition with pYEEI beads for radioactive Fyn SH2 domain (200 nM), no FKBP52
[2] = biological target: SH2 domain of the tyrosine kinase Fyn (UniProt P06241); experiment: isothermal titration calorimetry, 25 C
[3] = biological target: recombinant FKBP12 (UniProt P62942); experiment: isothermal titration calorimetry, 25 C
Chain of recombinant FKBP12 (P62942 whole entry): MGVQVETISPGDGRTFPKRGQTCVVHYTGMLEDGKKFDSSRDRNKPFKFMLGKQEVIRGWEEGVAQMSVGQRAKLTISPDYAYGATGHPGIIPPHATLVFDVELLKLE

[4] = biological target: recombinant FKBP52 with a tag of six histidine residues at its N-terminus (UniProt Q02790); experiment: isothermal titration calorimetry, 25 C
Chain of recombinant FKBP52 with a tag of six histidine residues at its N-terminus (Q02790 whole entry, the tested form may be a part): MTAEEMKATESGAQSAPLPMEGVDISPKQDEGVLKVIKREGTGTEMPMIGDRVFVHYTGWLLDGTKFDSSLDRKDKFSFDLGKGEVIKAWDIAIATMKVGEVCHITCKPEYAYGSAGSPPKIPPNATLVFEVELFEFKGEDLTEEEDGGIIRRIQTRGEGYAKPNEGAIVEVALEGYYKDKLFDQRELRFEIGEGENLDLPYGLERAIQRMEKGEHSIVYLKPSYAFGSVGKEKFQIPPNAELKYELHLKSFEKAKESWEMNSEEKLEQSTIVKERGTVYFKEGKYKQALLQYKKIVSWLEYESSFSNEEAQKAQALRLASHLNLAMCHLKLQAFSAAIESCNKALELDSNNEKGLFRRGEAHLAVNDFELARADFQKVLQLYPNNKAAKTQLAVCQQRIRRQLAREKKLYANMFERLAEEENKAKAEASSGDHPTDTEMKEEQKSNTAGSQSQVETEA

[5] = biological target: SH2 domain of the tyrosine kinase Fyn (UniProt P06241); experiment: ratio of IC50 values, competition with pYEEI beads
[6] = biological target: SH2 domain of the tyrosine kinase Fyn (UniProt P06241); experiment: competition with pYEEI beads for radioactive Fyn SH2 domain (200 nM), FKBP52 at 4.5 uM
[7] = biological target: SH2 domain of the tyrosine kinase Fyn (UniProt P06241); experiment: isothermal titration calorimetry, Fyn SH2 domain binding to the FKpYEEI-FKBP52 complex
[8] = biological target: SH2 domain of the tyrosine kinase Fyn (UniProt P06241); experiment: ratio of Kd values, isothermal titration calorimetry
[9] = biological target: phosphotyrosine peptide NH2-pYEEI-COOH; experiment: radioactive SH2 domain on an increased amount of pYEEI Affi-Gel beads
[10] = biological target: phosphotyrosine peptide NH2-pYEEI-COOH; experiment: radioactive SH2 domain (200 nM) on pYEEI Affi-Gel beads, scintillation counting
[11] = biological target: SH2 domain of the tyrosine kinase Fyn (UniProt P06241); experiment: competition with pYEEI beads for radioactive Fyn SH2 domain (200 nM), no FKBP12
[12] = biological target: SH2 domain of the tyrosine kinase Fyn (UniProt P06241); experiment: competition with pYEEI beads for radioactive Fyn SH2 domain (200 nM), FKBP12 at 20 uM
[13] = biological target: SH2 domain of the tyrosine kinase Fyn (UniProt P06241); experiment: isothermal titration calorimetry, Fyn SH2 domain binding to the SLFpYEEI-FKBP12 complex
[14] = biological target: SH2 domain of the tyrosine kinase Fyn (UniProt P06241); experiment: competition of free pYEEI with pYEEI beads for radioactive Fyn SH2 domain (200 nM)

Chain of SH2 domain of the tyrosine kinase Fyn (P06241 143-248): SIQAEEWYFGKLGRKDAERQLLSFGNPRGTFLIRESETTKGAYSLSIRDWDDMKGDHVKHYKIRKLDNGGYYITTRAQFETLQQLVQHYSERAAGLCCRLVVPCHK
Chain of N-terminal SH2 domain of PLC (P19174 550-657): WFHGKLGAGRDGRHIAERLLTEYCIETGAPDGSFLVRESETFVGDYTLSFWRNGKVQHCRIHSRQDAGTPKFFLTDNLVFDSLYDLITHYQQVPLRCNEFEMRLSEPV

Substance: FKpYEEI (pYEEI peptide chemically linked to FK506)
- IC50 [1]: 0.75 µM
- Kd [2]: 0.52 µM
- Kd [3]: 0.045 µM
- Kd [4]: 0.15 µM

Substance: SH2 domain of the tyrosine kinase Lck (from UniProt P06239 120-226)
- percent of SH2 domain bound to the beads [9]: 25%
- percent of SH2 domain bound to the beads [10]: 15%

Substance: SLFpYEEI-FKBP12 complex (binary complex of SLFpYEEI and FKBP12) (from UniProt P62942 1-108)
- IC50 [12]: 1.5 µM
- fold reduction of affinity against SLFpYEEI alone [5]: 6 fold
- Kd [13]: 1.5 µM

The remaining lines, values ahead:

- fold enhancement of affinity against FKpYEEI alone [5]: 3 fold
- fold enhancement of affinity against pYEEI [5]: 4.4 fold
- IC50 [6]: 0.25 µM
- Kd [7]: 0.13 µM
- fold enhancement of Kd against FKpYEEI alone [8]: 4 fold
Substance: FKpYEEI-FKBP52 complex (binary complex of FKBP52 and FKpYEEI) (from UniProt Q02790 1-459)

- percent of SH2 domain bound to the beads [9]: 40%
- percent of SH2 domain bound to the beads [10]: 25%
Substance: N-terminal SH2 domain of PLC

- percent of SH2 domain bound to the beads [9]: 80%
- percent of SH2 domain bound to the beads [10]: 65%
Substance: SH2 domain of the tyrosine kinase Fyn (from UniProt P06241 143-248)

- IC50 [11]: 0.25 µM
- Kd [2]: 0.183 µM
- Kd [3]: 0.061 µM
- Kd [4]: 5 µM
Substance: SLFpYEEI (SLF coupled to the N-terminus of the pYEEI peptide)

- IC50 [14]: 1.1 µM
Substance: phosphotyrosine peptide NH2-pYEEI-COOH

Reference: patent US20020147133A1
